Columns and labels:
Test in all cases: SPR
[1] = biological target: Core.BaL-GT1 (germline-targeting variant of core gp120) (HIV-1 strain BaL (from the name))
[2] = biological target: Core.HXB2 (core gp120 of HIV-1 strain HxB2, wild-type CD4 binding site) (HIV-1 strain HxB2)
[3] = biological target: eOD-GT6 (germline-targeting engineered outer domain of gp120) (HIV-1 strain HxB2)

Question: 3BNC60 (mature) (antibody) was tested. Which Kd [1] did it give?
Answer: 4 nM

Question: For “GL-12A12 (predicted germline precursor of 12A12) (antibody)”, which Kd [2] is on record?
Answer: > 100000 nM

Question: With 12A12 (mature) (antibody) as the substance, how does the Kd [2] read?
Answer: 6 nM

Question: For “GL-VRC-CH31 (predicted germline precursor of VRC-CH31) (antibody)”, which Kd [2] is on record?
Answer: > 100000 nM

Question: For “GL-3BNC60 (predicted germline precursor of 3BNC60) (antibody)”, which Kd [2] is on record?
Answer: > 100000 nM

Question: How did the Kd [1] turn out when “GL-NIH45-46 (predicted germline precursor of NIH45-46) (antibody)” was run?
Answer: > 100000 nM

Question: Which Kd [2] does the source give for “GL-PGV19 (predicted germline precursor of PGV19) (antibody)” here?
Answer: > 100000 nM

Question: And the Kd [3]?
Answer: 19 nM

Question: What does the source list for PGV20 (mature) (antibody)?
Answer: Kd [1]: 4 nM; Kd [2]: 19 nM; Kd [3]: 6 nM

Question: What does the source list for “GL-PGV04 (predicted germline precursor of PGV04) (antibody)”?
Answer: Kd [1]: > 100000 nM; Kd [2]: > 100000 nM

Question: How did the Kd [2] turn out when “GL-PGV20 (predicted germline precursor of PGV20) (antibody)” was run?
Answer: > 100000 nM
